Bridges are numbered along the chain shown (N, C = ends). Where no end group is shown, it is not given here. [ ]: non-standard residue; d: D form. triazolo‑Pro(2,4-diMe-benzyl) = triazolo-proline with ortho- and para-methyl phenyl methyl on the triazole; triazolo‑Pro(3,4-diMe-benzyl) = triazolo-proline with para- and meta-methyl phenyl methyl on the triazole; triazolo‑Pro(3,5-diMe-benzyl) = triazolo-proline with two meta-methyl phenyl methyl on the triazole; triazolo‑Pro(2-Me-benzyl) = triazolo-proline with ortho-methyl phenyl methyl on the triazole; triazolo‑Pro(3-Me-benzyl) = triazolo-proline with meta-methyl phenyl methyl on the triazole; triazolo‑Pro(4-Me-benzyl) = triazolo-proline with para-methyl phenyl methyl on the triazole; triazolo‑Pro(4-tBu-phenyl) = triazolo-proline with para-tert-butylphenyl on the triazole; triazolo‑Pro(ferrocenyl) = triazolo-proline carrying a ferrocene moiety on the triazole; triazolo‑Pro(benzyl) = triazolo-proline with phenyl methyl moiety on the triazole; triazolo‑Pro(biphenyl) = triazolo-proline with biphenyl group on the triazole
B1: cPT 36 (29N-2) (peptide)
peptide: DNI[4‑(4-(4-(thiophen-2-yl)phenyl)-1H-1,2,3-triazol-1-yl)proline]WK-NH2
modifications: lactam 1-6
notes: also called Compound 29N-2
B2: cPT 26 (peptide)
peptide: DNI[triazolo‑Pro(3-Me-benzyl)]WK-NH2
modifications: lactam 1-6
B3: cPT 24 (peptide)
peptide: DNI[triazolo‑Pro(4-Me-benzyl)]WK-NH2
modifications: lactam 1-6
B4: cPT 27 (peptide)
peptide: DNI[triazolo‑Pro(2,4-diMe-benzyl)]WK-NH2
modifications: lactam 1-6
B5: cPT 19 (peptide)
peptide: DNI[triazolo‑Pro(benzyl)]WK-NH2
modifications: lactam 1-6
B6: cPT 23 (peptide)
peptide: DNI[triazolo‑Pro(biphenyl)]WK-NH2
modifications: lactam 1-6
B7: cPT 21 (peptide)
peptide: DNI[triazolo‑Pro(4-iPr-phenyl)]WK-NH2
modifications: lactam 1-6
B8: cPT 18 (peptide)
peptide: DNI[triazolo‑Pro]WK-NH2
modifications: lactam 1-6; not fully specified
B9: cPT 29 (peptide)
peptide: DNI[triazolo‑Pro(3,4-diMe-benzyl)]WK-NH2
modifications: lactam 1-6
B10: cPT 28 (peptide)
peptide: DNI[triazolo‑Pro(3,5-diMe-benzyl)]WK-NH2
modifications: lactam 1-6
B11: cPT 22 (peptide)
peptide: DNI[triazolo‑Pro(4-tBu-phenyl)]WK-NH2
modifications: lactam 1-6
B12: cPT 20 (peptide)
peptide: DNIPWK-NH2
modifications: lactam 1-6; not fully specified (residue 4); also: further groups not given here
B13: cPT 25 (peptide)
peptide: DNI[triazolo‑Pro(2-Me-benzyl)]WK-NH2
modifications: lactam 1-6
B14: cPT 3 (AAR029b) (peptide)
peptide: DNI[triazolo‑Pro(ferrocenyl)]WK-NH2
modifications: lactam 1-6
notes: Ferrocene-containing parent cyclic peptide triazole; also called lead cPT 3

biological target: T1, wild type monomeric full-length HIV-1 YU-2 gp120 (HIV-1 YU-2, UniProt P35961 32-498); test: SPR competition: fixed HIV-1 YU-2 gp120 mixed with rising concentrations of 36 and passed over immobilized soluble CD4; y axis % gp120 binding to CD4 falls from about 97 to about 10 between about 5 and 2500 nM
T1 construct: domain: gp120; also called gp120YU-2; gp120 YU-2
Protocol: (§1) For kinetic analyses, typically 2000-3000 RUs of protein reagents are immobilized on SPR chips, and analytes are passed over the surface at 50-100 μL/min. Surface regeneration is achieved by a 5 μL injection of 10 mM HCl solution at 100 μL/min.
(§2) Data analysis of SPR competition data was performed using BIAevaluation v4.1.1 software (GE). To correct for nonspecific binding, response signals from buffer injection and from control flow cell were subtracted from all sensorgrams. […] The inhibition curve was plotted and then fitted using the four-parameter equation as shown below using OriginPro 8 graphing software.

| Binder | IC50 |
| --- | --- |
| B1 | 66 nM |

biological target: T1, wild type monomeric full-length HIV-1 …; test: SPR competition: gp120 YU-2 with increasing peptide over immobilised 17b; competitor 17b
Protocol: as §1, §2

| Binder | IC50 |
| --- | --- |
| B2 | 228 nM |
| B3 | 74 nM |
| B4 | 136 nM |
| B5 | 269 nM |
| B6 | 720 nM |
| B7 | 1260 nM |
| B8 | 647 nM |
| B9 | 2600 nM |
| B10 | 918 nM |
| B11 | 120 nM |
| B12 | 820 nM |
| B13 | 128 nM |

biological target: HIV-1 BaL.01 Env gp160 on pseudovirus (HIV-1 BaL.01); test: cell-based or functional assay

| Binder | HIV-1 cell infection inhibition IC50 | HIV-1 infection inhibition IC50 | HIV-1Bal.01 infection inhibition IC50 | HIV-1 cell infection inhibition, fold lower potency against cPT 24 |
| --- | --- | --- | --- | --- |
| B8 | ~1300 nM |  |  |  |
| B1 |  | ~105 nM |  |  |
| B14 |  |  | ~237 nM |  |
| B13 |  |  |  | ~28 fold |

biological target: T1, wild type monomeric full-length HIV-1 …; test: SPR competition: gp120 YU-2 with increasing peptide over immobilised soluble CD4; competitor CD4; CD4 competition column, not 17b competition
Protocol: as §1, §2

| Binder | IC50 |
| --- | --- |
| B8 | 614 nM |

biological target: T1, wild type monomeric full-length HIV-1 …; test: ITC, peptide titrated into 30 µM full-length gp120 YU-2, 25 °C, PBS pH 7.3
Protocol: (§3) The resulting heat changes were integrated, and the values obtained were fitted to a quadratic binding equation (one site binding model).
(§4) cPT dissociation constants were determined at 25° C. on a VP-Isothermal Titration Calorimeter (VP-ITC) system (MicroCal™, GE Healthcare, Freiburg). […] The resulting heat change upon injection was integrated over a time range of 300 sec, and the obtained values were fitted to a standard single-site binding model using ORIGIN®.

| Binder | Kd | ΔH | ΔS |
| --- | --- | --- | --- |
| B1 | 350 nM | -4.07 kcal/mol | 0.0159 kcal/mol |
| B14 | 415 nM | -5.96 kcal/mol | 0.00922 kcal/mol |

biological target: T1, wild type monomeric full-length HIV-1 …; test: SPR competition: gp120 YU-2 with increasing peptide over immobilised soluble CD4; competitor CD4
Protocol: as §1, §2

| Binder | IC50 |
| --- | --- |
| B2 | 234 nM |
| B3 | 80 nM |
| B4 | 130 nM |
| B5 | 257 nM |
| B6 | 680 nM |
| B7 | 1200 nM |
| B9 | 2800 nM |
| B10 | 926 nM |
| B11 | 150 nM |
| B12 | 956 nM |
| B13 | 132 nM |

biological target: HIV-1 BaL.01 Env gp160 on pseudovirus (HIV-1 BaL.01); test: cell-based or functional assay; remark: another data set of the same source

| Binder | HIV-1Bal.01 infection inhibition IC50 |
| --- | --- |
| B2 | 220 nM |
| B3 | 180 nM |
| B4 | 302 nM |
| B5 | 438 nM |
| B6 | 269 nM |
| B7 | 900 nM |
| B8 | 1400 nM |
| B9 | 8000 nM |
| B10 | 2000 nM |
| B11 | 350 nM |
| B12 | 1200 nM |
| B13 | 5100 nM |

biological target: T1, wild type monomeric full-length HIV-1 …; test: SPR competition: fixed HIV-1 YU-2 gp120 mixed with rising concentrations of 36 and passed over immobilized 17b; y axis % gp120 binding to 17b falls from about 100 to near 0 between about 2 and 2500 nM
Protocol: as §1, §2

| Binder | IC50 |
| --- | --- |
| B1 | 56 nM |

biological target: T1, wild type monomeric full-length HIV-1 …; test: ITC with monomeric gp120 YU-2
Protocol: as §3, §4

| Binder | -TΔS |
| --- | --- |
| B1 | -4.74 kcal/mol |
| B14 | -2.75 kcal/mol |

biological target: T1, wild type monomeric full-length HIV-1 …; test: SPR competition: gp120 YU-2 with increasing peptide over immobilised soluble CD4; competitor CD4; remark: another data set of the same source
Protocol: as §1, §2

| Binder | IC50 |
| --- | --- |
| B1 | ~66 nM |

biological target: T1, wild type monomeric full-length HIV-1 …; test: SPR competition: gp120 YU-2 with increasing peptide over immobilised 17b; competitor 17b; remark: another data set of the same source
Protocol: as §1, §2

| Binder | IC50 |
| --- | --- |
| B1 | ~56 nM |

From US20220204565A1 (DREXEL UNIVERSITY, published 2022)
